Values of other authors, collected in patent publication US20050176623A1, “Non-invasive treatment of disease using amphipathic compounds” (priority 2004, published 2005).

Details: fractional catabolic rate, kidney

## apolipoprotein A-I [apoA-I]
  normal clearance of apoA-I: approximately 0.3 pools/day
